Measured values: US20240270821A1, “GIP/GLP1/GCG TRI-RECEPTOR AGONISTS AND USES THEREOF” (priority 2023, published 2024)

Experiments:
Experiment in all cases: cell-based or functional assay
hGLP-1R = hGLP-1R (Homo sapiens, UniProt P43220)
[1] = molecular target: T1, human GIP receptor (human) (UniProt P48546)
T1 sequence (looked up): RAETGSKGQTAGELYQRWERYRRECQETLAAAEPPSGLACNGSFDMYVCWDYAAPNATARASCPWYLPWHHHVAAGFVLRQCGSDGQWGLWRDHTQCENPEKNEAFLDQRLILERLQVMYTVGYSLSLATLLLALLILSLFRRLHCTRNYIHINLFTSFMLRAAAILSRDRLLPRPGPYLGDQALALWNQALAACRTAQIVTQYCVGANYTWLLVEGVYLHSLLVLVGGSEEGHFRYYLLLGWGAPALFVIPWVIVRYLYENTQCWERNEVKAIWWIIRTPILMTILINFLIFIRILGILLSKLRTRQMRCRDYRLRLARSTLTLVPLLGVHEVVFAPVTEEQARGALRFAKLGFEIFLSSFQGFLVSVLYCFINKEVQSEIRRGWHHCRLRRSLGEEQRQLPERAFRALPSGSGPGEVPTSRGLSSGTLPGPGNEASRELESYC

[2] = molecular target: human glucagon receptor (human) (UniProt P47871)
Sequence of human glucagon receptor (human) (P47871 26-477): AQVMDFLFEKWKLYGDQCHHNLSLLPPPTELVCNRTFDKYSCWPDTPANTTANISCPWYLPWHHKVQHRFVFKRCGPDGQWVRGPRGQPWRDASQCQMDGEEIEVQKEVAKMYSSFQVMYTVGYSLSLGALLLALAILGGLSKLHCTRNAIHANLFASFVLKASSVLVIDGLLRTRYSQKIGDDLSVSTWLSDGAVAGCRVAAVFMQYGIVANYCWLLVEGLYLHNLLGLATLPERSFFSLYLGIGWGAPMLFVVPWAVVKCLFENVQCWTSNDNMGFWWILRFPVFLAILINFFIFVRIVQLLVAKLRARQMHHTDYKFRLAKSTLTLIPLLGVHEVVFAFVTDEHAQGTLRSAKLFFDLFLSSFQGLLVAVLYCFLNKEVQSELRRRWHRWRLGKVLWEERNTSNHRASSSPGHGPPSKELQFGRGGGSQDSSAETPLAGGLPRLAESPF

Sequence of hGLP-1R (P43220 24-463): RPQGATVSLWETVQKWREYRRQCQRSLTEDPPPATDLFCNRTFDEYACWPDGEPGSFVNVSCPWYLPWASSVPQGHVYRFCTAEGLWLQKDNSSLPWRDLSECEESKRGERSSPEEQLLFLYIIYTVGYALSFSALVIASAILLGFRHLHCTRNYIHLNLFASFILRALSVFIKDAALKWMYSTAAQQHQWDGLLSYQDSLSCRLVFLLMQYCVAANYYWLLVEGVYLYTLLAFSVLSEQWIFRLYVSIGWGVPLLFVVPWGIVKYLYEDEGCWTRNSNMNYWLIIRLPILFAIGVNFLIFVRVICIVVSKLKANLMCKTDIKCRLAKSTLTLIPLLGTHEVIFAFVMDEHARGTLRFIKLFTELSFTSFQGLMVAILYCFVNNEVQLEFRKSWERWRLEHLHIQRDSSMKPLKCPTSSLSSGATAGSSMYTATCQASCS

Row | Binder | Relative cAMP EC50 (hGLP-1R) [nM] | cAMP Rel EC50 (1% HSA) (hGLP-1R) [nM] | Relative cAMP EC50 [1] [nM] | cAMP Rel EC50 (1% HSA) [1] [nM] | Relative cAMP EC50 [2] [nM] | cAMP Rel EC50 (1% HSA) [2] [nM] | cAMP Rel EC50, nM (in the presence of 1% HSA) (hGLP-1R) [nM] | cAMP Rel EC50, nM (in the presence of 1% HSA) [1] [nM] | cAMP Rel EC50, nM (in the presence of 1% HSA) [2] [nM]
1 | YXQGTXTSDXXIXLDXKAQXXFIEXLQEGGPSSGEPPPSGTE (synthetic construct; SITE 2: note = 2-Aminoisobutyric Acid; SITE 6: note = alpha-methyl-2-fluoro-L-phenylalanine; SITE 10: note = 3-(4-Pyridyl)-L-alanine; SITE 11: note = alpha-methyl-L-serine; SITE 13: note = alpha-methyl-leucine; SITE 16: note = L-ornithine; SITE 17: note = Lysine is chemically mo) [Example 504] | 0.253 | 16.5 | 0.0364 | 1.8 | 2.83 | 162 |  |  | 
2 | YXQGTXTSDXXILLDXKAQXXFIEYLIEGGPSSGEPPPSGTE (synthetic construct; SITE 2: note = 2-Aminoisobutyric Acid; SITE 6: note = alpha-methyl-2-fluoro-L-phenylalanine; SITE 10: note = 3-(4-Pyridyl)-L-alanine; SITE 11: note = alpha-methyl-L-serine; SITE 16: note = L-ornithine; SITE 17: note = Lysine is chemically modified through conjugation of the epsi) [Example 531] | 0.356 | 37.8 | 0.0694 | 5.2 | 3.79 | 465 |  |  | 
3 | YXQGTXTSDXXIXLDXKAQXQFIEXLQEGGPSSGEPPPEGTE (synthetic construct; SITE 2: note = 2-Aminoisobutyric Acid; SITE 6: note = alpha-methyl-2-fluoro-L-phenylalanine; SITE 10: note = 3-(4-Pyridyl)-L-alanine; SITE 11: note = alpha-methyl-L-serine; SITE 13: note = alpha-methyl-leucine; SITE 16: note = L-ornithine; SITE 17: note = Lysine is chemically mo) [Example 528] | 0.434 | 24.3 | 0.0333 | 1.55 | 7 | 474 |  |  | 
4 | YXQGTXTSDXXIXLDXKAQXNFIEXLQEGGPSSGEPPPEGTE (synthetic construct; SITE 2: note = 2-Aminoisobutyric Acid; SITE 6: note = alpha-methyl-2-fluoro-L-phenylalanine; SITE 10: note = 3-(4-Pyridyl)-L-alanine; SITE 11: note = alpha-methyl-L-serine; SITE 13: note = alpha-methyl-leucine; SITE 16: note = L-ornithine; SITE 17: note = Lysine is chemically mo) [Example 526] | 0.421 | 22.9 | 0.0364 | 2.12 | 8.62 | 530 |  |  | 
5 | YXQGTXTSDXXIXLDXKAQXXFIEYLSEGGPSSGEPPPSGTE (synthetic construct; SITE 2: note = 2-Aminoisobutyric Acid; SITE 6: note = alpha-methyl-2-fluoro-L-phenylalanine; SITE 10: note = 3-(4-Pyridyl)-L-alanine; SITE 11: note = alpha-methyl-L-serine; SITE 13: note = alpha-methyl-leucine; SITE 16: note = L-ornithine; SITE 17: note = Lysine is chemically mo) [Example 530] | 4.91 | 437 | 0.874 | 63.7 | 17.1 | 1280 |  |  | 
6 | YXQGTXTSDXXILLDXKAQXXFIEXLQEGGPSSGEPPPEGAE (synthetic construct; SITE 2: note = 2-Aminoisobutyric Acid; SITE 6: note = alpha-methyl-2-fluoro-L-phenylalanine; SITE 10: note = 3-(4-Pyridyl)-L-alanine; SITE 11: note = alpha-methyl-L-serine; SITE 16: note = L-ornithine; SITE 17: note = Lysine is chemically modified through conjugation of the epsi) [Example 546] | 0.517 | 34.4 | 0.25 | 11.9 | 3.67 | 225 |  |  | 
7 | YXQGTXTSDXXIXLDXKAQXXFIEXLTEGGPSSGEPPPSGTE (synthetic construct; SITE 2: note = 2-Aminoisobutyric Acid; SITE 6: note = alpha-methyl-2-fluoro-L-phenylalanine; SITE 10: note = 3-(4-Pyridyl)-L-alanine; SITE 11: note = alpha-methyl-L-serine; SITE 13: note = alpha-methyl-leucine; SITE 16: note = L-ornithine; SITE 17: note = Lysine is chemically mo) [Example 542] | 0.388 | 29.6 | 0.0336 | 1.69 | 5.03 | 256 |  |  | 
8 | YXQGTXTSDXXIXLDXKAQXXFIEXLAEGGPSSGEPPPSGTE (synthetic construct; SITE 2: note = 2-Aminoisobutyric Acid; SITE 6: note = alpha-methyl-2-fluoro-L-phenylalanine; SITE 10: note = 3-(4-Pyridyl)-L-alanine; SITE 11: note = alpha-methyl-L-serine; SITE 13: note = alpha-methyl-leucine; SITE 16: note = L-ornithine; SITE 17: note = Lysine is chemically mo) [Example 544] | 0.623 | 43 | 0.041 | 2.4 | 2.71 | 171 |  |  | 
9 | YXQGTXTSDXXIXLDXKAQXXFIEYLIEGGPSSGEPPPSGTE (not fully specified; printed without C-terminal amide; synthetic construct; SITE 2: note = 2-Aminoisobutyric Acid; SITE 6: note = alpha-methyl-2-fluoro-L-phenylalanine; SITE 10: note = 3-(4-Pyridyl)-L-alanine; SITE 11: note = alpha-methyl-L-serine; SITE 13: note = alpha-methyl-leucine; SITE 16: note = L-ornithine; SITE 17: note = Lysine is chemically mo) [Example 522] | 0.51 | 35.5 | 0.033 | 1.95 | 6.32 | 441 |  |  | 
10 | YXQGTXTSDXXIXLDXKAQXXFIEYLLEGGPSSGEPPPSGTE (synthetic construct; SITE 2: note = 2-Aminoisobutyric Acid; SITE 6: note = alpha-methyl-2-fluoro-L-phenylalanine; SITE 10: note = 3-(4-Pyridyl)-L-alanine; SITE 11: note = alpha-methyl-L-serine; SITE 13: note = alpha-methyl-leucine; SITE 16: note = L-ornithine; SITE 17: note = Lysine is chemically mo) [Example 532] | 0.577 | 47.3 | 0.0159 | 1.49 | 1.37 | 157 |  |  | 
11 | YXQGTFTSDFSKXLDKKAQXAFIEYLLEGGPSSGAPPPXEG (synthetic construct; SITE 2: note = 2-Aminoisobutyric Acid; SITE 13: note = alpha-methyl-leucine; SITE 17: note = Lysine is chemically modified through conjugation of the epsilon-amino group of the Lysine side chain with (2-[2-(2-Amino-ethoxy)-ethoxy]-acetyl)-(gamma-Glu)-CO-(CH2) 18-CO2H; SITE 20: n) [Example 52] | 5.18 |  | 0.449 |  | 5.84 |  | 1250 | 111 | 1740
12 | YXQGTFTSDFSKXLDKKAQXAFIEYLLEGGPSSGAPPPXGE (synthetic construct; SITE 2: note = 2-Aminoisobutyric Acid; SITE 13: note = alpha-methyl-leucine; SITE 17: note = Lysine is chemically modified through conjugation of the epsilon-amino group of the Lysine side chain with (2-[2-(2-Amino-ethoxy)-ethoxy]-acetyl)-(gamma-Glu)-CO-(CH2) 18-CO2H; SITE 20: n) [Example 53] | 3.31 |  | 0.518 |  | 4.19 |  | 1030 | 113 | 1780
13 | YXQGTXTSDXXIXLDXKAQXXFIEYLIEGGPSSGEPPPSGTGE (synthetic construct; SITE 2: note = 2-Aminoisobutyric Acid; SITE 6: note = alpha-methyl-2-fluoro-L-phenylalanine; SITE 10: note = 3-(4-Pyridyl)-L-alanine; SITE 11: note = alpha-methyl-L-serine; SITE 13: note = alpha-methyl-leucine; SITE 16: note = L-ornithine; SITE 17: note = Lysine is chemically mo) [Example 523] | 0.482 | 27.1 | 0.021 | 0.869 | 3.79 | 234 |  |  | 
14 | YXQGTXTSDXXIXLDXKAQXNFIEXLQEGGPSSGEPPPEGTGE (synthetic construct; SITE 2: note = 2-Aminoisobutyric Acid; SITE 6: note = alpha-methyl-2-fluoro-L-phenylalanine; SITE 10: note = 3-(4-Pyridyl)-L-alanine; SITE 11: note = alpha-methyl-L-serine; SITE 13: note = alpha-methyl-leucine; SITE 16: note = L-ornithine; SITE 17: note = Lysine is chemically mo) [Example 527] | 0.446 | 26.8 | 0.0386 | 2.6 | 6.99 | 580 |  |  | 
15 | YXQGTXTSDXXIXLDXKAQXXFIEXLAEGGPSSGEPPPSGTGE (synthetic construct; SITE 2: note = 2-Aminoisobutyric Acid; SITE 6: note = alpha-methyl-2-fluoro-L-phenylalanine; SITE 10: note = 3-(4-Pyridyl)-L-alanine; SITE 11: note = alpha-methyl-L-serine; SITE 13: note = alpha-methyl-leucine; SITE 16: note = L-ornithine; SITE 17: note = Lysine is chemically mo) [Example 545] | 0.602 | 40.2 | 0.0432 | 2.74 | 2.71 | 180 |  |  | 
16 | YXQGTXTSDXXIXLDXKAQXQFIEXLQEGGPSSGEPPPEGTGE (synthetic construct; SITE 2: note = 2-Aminoisobutyric Acid; SITE 6: note = alpha-methyl-2-fluoro-L-phenylalanine; SITE 10: note = 3-(4-Pyridyl)-L-alanine; SITE 11: note = alpha-methyl-L-serine; SITE 13: note = alpha-methyl-leucine; SITE 16: note = L-ornithine; SITE 17: note = Lysine is chemically mo) [Example 529] | 0.467 | 24.5 | 0.0273 | 1.39 | 6.59 | 398 |  |  | 
17 | YXQGTXTSDXXIXLDXKAQXXFIEXLTEGGPSSGEPPPSGTGE (synthetic construct; SITE 2: note = 2-Aminoisobutyric Acid; SITE 6: note = alpha-methyl-2-fluoro-L-phenylalanine; SITE 10: note = 3-(4-Pyridyl)-L-alanine; SITE 11: note = alpha-methyl-L-serine; SITE 13: note = alpha-methyl-leucine; SITE 16: note = L-ornithine; SITE 17: note = Lysine is chemically mo) [Example 543] | 0.41 | 32 | 0.0319 | 1.88 | 4.56 | 300 |  |  | 
18 | YXQGTXTSDXXIXLDXKAQXXFIEYLIEGGPSSGEPPPSGTGE (not fully specified; C-terminal amide; synthetic construct; SITE 2: note = 2-Aminoisobutyric Acid; SITE 6: note = alpha-methyl-2-fluoro-L-phenylalanine; SITE 10: note = 3-(4-Pyridyl)-L-alanine; SITE 11: note = alpha-methyl-L-serine; SITE 13: note = alpha-methyl-leucine; SITE 16: note = L-ornithine; SITE 17: note = Lysine is chemically mo) [Example 524] | 0.487 | 32.7 | 0.0266 | 1.46 | 5.11 | 464 |  |  | 
19 | YXQGTFTSDFSKXLDKKAQXAFIEYLLEGGPSSGEPPPGEGX (synthetic construct; SITE 2: note = 2-Aminoisobutyric Acid; SITE 13: note = alpha-methyl-leucine; SITE 17: note = Lysine is chemically modified through conjugation of the epsilon-amino group of the Lysine side chain with (2-[2-(2-Amino-ethoxy)-ethoxy]-acetyl)-(gamma-Glu)-CO-(CH2) 18-CO2H; SITE 20: n) [Example 54] | 3.95 |  | 0.502 |  | 3.77 |  | 1300 | 168 | 1940
20 | YXQGTXTSDXSIXLDXKAQXXFIEXLIEGGPSSGEPPPEGT (synthetic construct; SITE 2: note = 2-Aminoisobutyric Acid; SITE 6: note = alpha-methyl-2-fluoro-L-phenylalanine; SITE 10: note = 3-(4-Pyridyl)-L-alanine; SITE 13: note = alpha-methyl-leucine; SITE 16: note = L-ornithine; SITE 17: note = Lysine is chemically modified through conjugation of the epsil) [Example 505] | 0.205 | 39 | 0.00707 | 2.1 | 0.445 | 92 |  |  | 
21 | YXQGTXTSDXXIXLDXKAQXNFIEXLQEGGPSSGEPPPEGT (synthetic construct; SITE 2: note = 2-Aminoisobutyric Acid; SITE 6: note = alpha-methyl-2-fluoro-L-phenylalanine; SITE 10: note = 3-(4-Pyridyl)-L-alanine; SITE 11: note = alpha-methyl-L-serine; SITE 13: note = alpha-methyl-leucine; SITE 16: note = L-ornithine; SITE 17: note = Lysine is chemically mo) [Example 525] | 0.426 | 20.2 | 0.0351 | 2.07 | 10 | 460 |  |  | 
